In publication PMC3751566:

Columns and labels:
[1] = molecular target: syntaxin4 (UniProt P70452); assay: Munc18c IP, syntaxin4 blot; details: reference: wild type Munc18c (WT and R cells), insulin
[2] = molecular target: syntaxin4 (UniProt P70452); assay: syntaxin4 IP, Munc18c blot (reciprocal); details: reference: wild type Munc18c (WT and R cells), insulin

binding against the reference ([1]; sites Y521)	binding against the reference ([2]; sites Y521)	binding against the reference ([1]; sites Y218,Y219)	binding against the reference ([2]; sites Y218,Y219)	Substance
stronger	stronger			Munc18c (from UniProt Q60770) Y521F, insulin
		stronger	stronger	Munc18c (from UniProt Q60770) Y218/219F, insulin
